Results: paper PMC10672168, “Invasive Staphylococcus epidermidis uses a unique processive wall teichoic acid glycosyltransferase to evade immune recognition” (Science Advances, 2023)

What was measured:
TarM(Se) = conditions: 30 mM ligand; acceptor site; only two RboP units and one phosphate ordered; monomeric mutant
[1] = target: TarM(Se) E10A mutant (S. epidermidis); experiment: SEC; Superdex 200 increase 10/30, calibrated column; buffer D: 20 mM triethanolamine pH 7.8 (TarM(Se)_(G117R)) or 8.5 (TarM(Se) and mutant proteins), 250 mM LiCl, 10 mM β-mercaptoethanol, 5% glycerol
[2] = target: TarM(Se) K233A mutant (S. epidermidis); experiment: as above
[3] = target: TarM(Se) N9A mutant (S. epidermidis); experiment: as above
[4] = target: TarM(Se) N203A mutant (S. epidermidis); experiment: as above
[5] = target: TarM(Se) N255A mutant (S. epidermidis); experiment: as above
[6] = target: TarM(Se) Q265A mutant (S. epidermidis); experiment: as above
[7] = target: TarM(Se), WTA glycosyltransferase TarM of S. epidermidis, wild type (S. epidermidis); experiment: crystal structure
[8] = target: TarM(Se), WTA glycosyltransferase TarM of S. epidermidis, wild type (S. epidermidis); experiment: SEC; Superdex 200 increase 10/30, calibrated column; buffer D: 20 mM triethanolamine pH 7.8 (TarM(Se)_(G117R)) or 8.5 (TarM(Se) and mutant proteins), 250 mM LiCl, 10 mM β-mercaptoethanol, 5% glycerol

NCCCCCCOP(=O)(O)OC[C@@H](O)[C@@H](O)[C@@H](O)COP(=O)(O)OC[C@@H](O)[C@@H](O)[C@@H](O)COP(=O)(O)OC[C@@H](O)[C@@H](O)[C@@H](O)COP(=O)(O)OC[C@@H](O)[C@@H](O)[C@@H](O)CO [4RboP-(CH2)6NH2]
X-ray crystal structure (cocrystallization) (TarM(Se)): The 4RboP-(CH2)6NH2 compound was introduced into the TarM(Se)G117R crystals through cocrystallization

TarM(Se) E10A mutant (enzyme)
stoichiometry N [1]: 3

TarM(Se) K233A mutant (enzyme)
stoichiometry N [2]: 3

TarM(Se) N9A mutant (enzyme)
stoichiometry N [3]: 3

TarM(Se) N203A mutant (enzyme)
stoichiometry N [4]: 3

TarM(Se) N255A mutant (enzyme)
stoichiometry N [5]: 3

TarM(Se) Q265A mutant (enzyme)
stoichiometry N [6]: 3

TarM(Se), WTA glycosyltransferase TarM of S. epidermidis, wild type (enzyme)
stoichiometry N [7]: 3 | stoichiometry N [8]: 3
